Results on one molecule are retold here after patent US20240277770A1, “SYSTEMS AND METHODS TO IDENTIFY MHC-ASSOCIATED ANTIGENS FOR THERAPEUTIC INTERVENTION” (GENENTECH, INC., priority 2021, published 2024).

For this assay, the target named is recombinant conditional HLA-A*02:01 complex (human). Nature of the assay: TR-FRET peptide exchange / HLA complex stability assay. Conditions: remark: other sources report otherwise. Background: Time-resolved FRET reads energy transfer from a long-lived donor to a nearby acceptor.

Regarding HMTEVVRHC (here or on the partner: biotinylated (BirA)) […], the RZ-score turned out to be 3.9.
